Results: paper PMC10533412 (Nature, 2023)

Target: the molecule itself
Experiment: SEC-MALS; single protein at 5 mg/ml, Superdex 200, 20 mM HEPES pH 7.5, 150 mM NaCl

B1: BTN2A1 B30.2 domain (domain or fragment, human)
chain: EELRWRRTFLHAVDVVLDPDTAHPDLFLSEDRRSVRRCPFRHLGESVPDNPERFDSQPCVLGRESFASGKHYWEVEVENVIEWTVGVCRDSVERKGEVLLIPQNGFWTLEMHKGQYRAVSSPDRILPLKESLCRVGVFLDYEAGDVSFYNMRDRSHIYTCPRSAFSVPVRPFFRLGCEDSPIFICPALTGANGVTVPEEGLTLHRVGTHQSL
notes: butyrophilin 2A1 (BTN2A1), human, intracellular B30.2 domain with the C-terminal tail; Homodimer by SEC-MALS and in the crystals; source: E. coli BL21 (DE3), purified (Ni-NTA, TEV cleavage, Ni-NTA or DEAE Sepharose)
stoichiometry N: 2
